Changes are numbered by the printed parent chain.

For experiment [1], the target named is T1, recombinant soluble human C4.4a (human, UniProt O95274 31-308).
T1 construct: recombinant, soluble, purified protein; also called hC4.4a; full length C4.4a
T1 sequence: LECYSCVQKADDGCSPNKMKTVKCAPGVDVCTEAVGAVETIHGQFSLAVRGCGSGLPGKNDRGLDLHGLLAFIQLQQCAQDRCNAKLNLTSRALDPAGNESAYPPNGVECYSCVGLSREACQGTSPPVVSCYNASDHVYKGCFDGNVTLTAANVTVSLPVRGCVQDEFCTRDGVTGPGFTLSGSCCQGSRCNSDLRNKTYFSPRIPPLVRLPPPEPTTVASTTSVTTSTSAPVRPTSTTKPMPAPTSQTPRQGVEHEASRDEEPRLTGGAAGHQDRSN
Put plainly: direct ELISA, Fab supernatant on coated human C4.4a, signal normalized to Fab quantity. As for the experimental part: (§1) Cultures were diluted in 10% Smart Block in PBST and bound to the MTP plates for 1 h at 20° C. After washing with PBST, captured antibodies were incubated with a HRP-coupled anti-lambda antibody (Sigma, A5175) and detected by incubating the plate with 10 μM amplex red substrate (Invitrogen, A12222) for 30 minutes at 20° C. in the dark followed by fluorescence measurement. Determined quantification signals were checked to be in the dynamic range of an calibration series built up with concentrated parental Fab (M31-B01 or M20-D02-S-A) expression culture supernatant allowing a relative quantification of each individual Fab expression sample.
(§2) To determine the activity of the mutated Fab variants on recombinant soluble human or mouse C4.4a a direct ELISA assay format was used. Briefly, MTP plates (Nunc maxisorp black, 460518) were coated with 2 μg/ml either human or mouse C4.4a diluted in coating buffer (Candor Bioscience GmbH, 121125) and incubated for 15 h at 4° C. After washing 3 times with PBST, plates were blocked with 100% Smart Block (Candor Bioscience GmbH, 113500) for 1 h at 20° C. and the washing steps were repeated. For binding of the Fab antibody fragments 20 μl of culturing supernatants were added to the plates for 1 h at 20° C. followed by washing. In some cases the washing stringency was increased by an additional incubation step with 10% Smart Block in PBST for 90 min followed by washing 3 times with PBST (“process B” in Table 10b). Bound parental Fabs and variants were then detected by a HA-epitope tag specific antibody HRP conjugate (Bethyl, A190-108P). 10 μM amplex red substrate (Invitrogen, A12222) was added to the plates and the fluorescence signal was detected using a common fluorescence reader, e.g. Tecan Ultra. Quantity normalized affinity signals were calculated as ratios of background corrected affinity and quantification signals in the respective ELISA: (Signalaffinity−Backgroundaffinity)/(Signalquantity−Backgroundquantity). The resulting values correlate mainly with the affinity in a positive manner, whereas not normalized values correlate additionally with the concentration of the binding Fab in the sample.

Experiment [2] deals with T2, recombinant soluble murine C4.4a (mouse, UniProt Q91YK8 33-343, limits assumed).
T2 construct: also called mouse C4.4a; mC4.4a
T2 sequence (looked up): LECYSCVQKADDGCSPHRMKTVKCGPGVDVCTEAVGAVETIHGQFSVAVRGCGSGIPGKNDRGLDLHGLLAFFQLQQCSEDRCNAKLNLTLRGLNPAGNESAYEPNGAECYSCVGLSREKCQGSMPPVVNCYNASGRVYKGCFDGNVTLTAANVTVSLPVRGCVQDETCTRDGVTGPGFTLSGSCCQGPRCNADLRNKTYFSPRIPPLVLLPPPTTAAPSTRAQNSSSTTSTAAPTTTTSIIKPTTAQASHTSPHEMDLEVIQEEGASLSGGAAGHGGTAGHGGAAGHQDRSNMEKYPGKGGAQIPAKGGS
In words: direct ELISA, Fab supernatant on coated mouse C4.4a, signal normalized to Fab quantity. On the procedure:
as §1, §2
On the technique in general: ELISA stands for enzyme-linked immunosorbent assay.

B1: wild-type Fab M31-B01 (Fab, V domains shown)
VH: EVQLLESGGGLVQPGGSLRLSCAASGFTFSNAWMSWVRQAPGKGLEWVSYISSSGSTIYYADSVKGRFTISRDNSKNTLYLQMNSLRAEDTAVYYCAREGLWAFDYWGQGTLVTVTS
VL: QSVLTQPPSASGTPGQRVTISCTGSSSNIGAGYVVHWYQQLPGTAPKLLIYDNNKRPSGVPDRFSGSKSGTSASLAISGLRSEDEADYYCAAWDDRLNGPVFGGGTKLTVLG
notes: Fab with 3×HA-tag and hexa-histidine tag at the C-terminus of the heavy chain, E. coli culture supernatant; also called M31-B01 (parental Fab)
Turning to B1, in experiment [1], the “normalized affinity signal (average)” value was 1.11 and the “normalized affinity signal (median)” value came out at 1.23. In experiment [2], the “normalized affinity signal (average)” value was determined as 0.13 and the “normalized affinity signal (median)” value is 0.16.

B2: M31-B01 Fab LC N95aK (Fab, V domains shown)
VH: B1 VH
VL: B1 VL with N98K
notes: Fab with 3×HA-tag and hexa-histidine tag at the C-terminus of the heavy chain, culture supernatant
Turning to B2, the “normalized affinity signal (average)” value is 1.11 in experiment [1] and 0.12 in experiment [2].

B3: M31-B01 Fab HC N31S (Fab, V domains shown)
VH: B1 VH with N31S
VL: B1 VL
notes: as for B2
As to B3, the “normalized affinity signal (median)” value is 1.53 in experiment [1] and 0.32 in experiment [2].

B4: M31-B01 Fab LC R94M (Fab, V domains shown)
VH: B1 VH
VL: B1 VL with R96M
notes: as for B2
B4: the “normalized affinity signal (average)” value in experiment [1] came to 1.3; in experiment [2], 0.13.

B5: M31-B01 Fab HC I57T (Fab, V domains shown)
VH: B1 VH with I58T
VL: B1 VL
notes: as for B2
With B5, the “normalized affinity signal (median)” value in experiment [1] stood at 1.5; in experiment [2], 0.73.

B6: M31-B01 Fab HC Y102W (Fab, V domains shown)
VH: B1 VH with Y106W
VL: B1 VL
notes: as for B2
In the case of B6, the “normalized affinity signal (average)” value in experiment [1] worked out at 1.65; in experiment [2] it was 0.13.

B7: M31-B01 Fab HC A32Y (Fab, V domains shown)
VH: B1 VH with A32Y
VL: B1 VL
notes: as for B2
As for B7, the “normalized affinity signal (median)” value is 2.31 in experiment [1] and 0.01 in experiment [2].

B8: M31-B01 Fab LC T24S (Fab, V domains shown)
VH: B1 VH
VL: B1 VL with T23S
notes: as for B2
As for B8, the results for the “normalized affinity signal (median)” value in experiment [1] and in experiment [2] were 0.77 and 0.23, respectively.

B9: M31-B01 Fab LC K53Q (Fab, V domains shown)
VH: B1 VH
VL: B1 VL with K55Q
notes: as for B2
Take B9: the “normalized affinity signal (median)” value in experiment [1] came out at 1.12; in experiment [2] it was 0.35.

B10: M31-B01 Fab HC T56S (Fab, V domains shown)
VH: B1 VH with T57S
VL: B1 VL
notes: as for B2
Regarding B10, the “normalized affinity signal (median)” value was found to be 1.58 in experiment [1] and 0.74 in experiment [2].

B11: M31-B01 Fab LC G95bR (Fab, V domains shown)
VH: B1 VH
VL: B1 VL with G99R
notes: as for B2
Take B11: the entries for the “normalized affinity signal (average)” value in experiment [1] and in experiment [2] were 2.45 and 1.01, respectively.

B12: M31-B01 Fab LC W91Y (Fab, V domains shown)
VH: B1 VH
VL: B1 VL with W93Y
notes: as for B2
B12: the results for the “normalized affinity signal (average)” value in experiment [1] and in experiment [2] were 4.97 and 2.79, respectively.

B13: M31-B01 Fab LC P96A (Fab, V domains shown)
VH: B1 VH
VL: B1 VL with P100A
notes: as for B2
Turning to B13, the “normalized affinity signal (average)” value in experiment [1] came out at 0.95; in experiment [2] it was 0.32.

B14: M31-B01 Fab HC Y102K (Fab, V domains shown)
VH: B1 VH with Y106K
VL: B1 VL
notes: as for B2
On to B14, for which the entries for the “normalized affinity signal (average)” value in experiment [1] and in experiment [2] were 1.49 and 0.21, respectively.

B15: M31-B01 Fab LC W91F (Fab, V domains shown)
VH: B1 VH
VL: B1 VL with W93F
notes: as for B2
As to B15, the figures for the “normalized affinity signal (average)” value in experiment [1] and in experiment [2] were 4.3 and 2.53, respectively.

B16: M31-B01 Fab LC W91E (Fab, V domains shown)
VH: B1 VH
VL: B1 VL with W93E
notes: as for B2
Consider B16, for which the “normalized affinity signal (average)” value amounted to 3.17 in experiment [1] and 0.4 in experiment [2].

B17: wild-type Fab M20-D02 S-A (Fab, V domains shown)
VH: EVQLLESGGGLVQPGGSLRLSCAASGFTFSDYQMTWIRQTPGKGLEWVSGVSWNGARTHYADSVKGRFTISRDNSKNTLYLQMNSLRAEDTAVYYCAKGDYLVYSAYYFDSWGQGTLVTVTS
VL: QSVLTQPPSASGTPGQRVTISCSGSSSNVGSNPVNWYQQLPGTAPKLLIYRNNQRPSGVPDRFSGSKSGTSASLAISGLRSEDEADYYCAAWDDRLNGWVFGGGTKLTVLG
notes: Fab with 3×HA-tag and hexa-histidine tag at the C-terminus of the heavy chain, E. coli culture supernatant; also called M20-D02 S-A (parental Fab)
Turning to B17, in experiment [1], the “normalized affinity signal (average)” value is 0.04 and the “normalized affinity signal (median, process A)” value came to 0.15. Besides, in experiment [2], the “normalized affinity signal (average)” value stood at 0.01 and the “normalized affinity signal (median, process A)” value is 0.04.

B18: M20-D02 S-A Fab HC A100bR (Fab, V domains shown)
VH: B17 VH with A106R
VL: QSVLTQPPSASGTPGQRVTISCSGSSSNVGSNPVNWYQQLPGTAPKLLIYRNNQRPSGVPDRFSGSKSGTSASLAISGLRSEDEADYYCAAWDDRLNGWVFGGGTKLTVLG
notes: as for B2
Take B18: the “normalized affinity signal (average)” value in experiment [1] was determined as 0.87; in experiment [2] it was 0.01.

B19: M20-D02 S-A Fab HC D101E (Fab, V domains shown)
VH: B17 VH with D110E
VL: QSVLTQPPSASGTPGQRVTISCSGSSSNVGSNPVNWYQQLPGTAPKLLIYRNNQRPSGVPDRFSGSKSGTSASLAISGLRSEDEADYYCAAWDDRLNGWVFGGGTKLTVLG
notes: as for B2
In the case of B19, the “normalized affinity signal (average)” value in experiment [1] amounted to 0.31; in experiment [2] it was 0.05.

B20: M20-D02 S-A Fab HC S100aK (Fab, V domains shown)
VH: B17 VH with S105K
VL: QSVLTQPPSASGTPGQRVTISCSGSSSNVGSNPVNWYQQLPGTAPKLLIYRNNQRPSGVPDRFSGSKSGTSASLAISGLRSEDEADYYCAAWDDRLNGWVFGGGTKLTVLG
notes: as for B2
On to B20, for which the “normalized affinity signal (average)” value in experiment [1] came to 0.45; in experiment [2] it was 0.06.

B21: M20-D02 S-A Fab HC A55G (Fab, V domains shown)
VH: B17 VH with A56G
VL: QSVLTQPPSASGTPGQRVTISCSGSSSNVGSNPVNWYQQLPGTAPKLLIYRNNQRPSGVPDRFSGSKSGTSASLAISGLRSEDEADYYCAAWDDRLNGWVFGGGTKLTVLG
notes: as for B2
Take B21: the “normalized affinity signal (median, process A)” value in experiment [1] was found to be 0.15; in experiment [2], 0.04.

B22: M20-D02 S-A Fab HC R56S (Fab, V domains shown)
VH: B17 VH with R57S
VL: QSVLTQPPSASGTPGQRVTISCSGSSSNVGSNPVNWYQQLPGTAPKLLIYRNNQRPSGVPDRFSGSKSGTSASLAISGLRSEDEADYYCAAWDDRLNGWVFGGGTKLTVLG
notes: as for B2
As for B22, the “normalized affinity signal (median, process A)” value in experiment [1] stood at 0.21; in experiment [2] it was 0.06.

B23: M20-D02 S-A Fab LC N95aW (Fab, V domains shown)
VH: B17 VH
VL: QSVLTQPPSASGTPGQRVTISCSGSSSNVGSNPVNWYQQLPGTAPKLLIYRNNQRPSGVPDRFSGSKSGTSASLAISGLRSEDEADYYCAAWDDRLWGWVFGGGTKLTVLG
notes: as for B2
Turning to B23, the “normalized affinity signal (average)” value in experiment [1] worked out at 0.11.

B24: M20-D02 S-A Fab HC D101R (Fab, V domains shown)
VH: B17 VH with D110R
VL: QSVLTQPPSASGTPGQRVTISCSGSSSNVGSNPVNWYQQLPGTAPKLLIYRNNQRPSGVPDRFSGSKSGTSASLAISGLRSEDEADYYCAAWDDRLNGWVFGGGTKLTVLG
notes: as for B2
Consider B24, for which the “normalized affinity signal (average)” value in experiment [1] was 0.61; in experiment [2], 0.03.

B25: M20-D02 S-A Fab HC A100bS (Fab, V domains shown)
VH: B17 VH with A106S
VL: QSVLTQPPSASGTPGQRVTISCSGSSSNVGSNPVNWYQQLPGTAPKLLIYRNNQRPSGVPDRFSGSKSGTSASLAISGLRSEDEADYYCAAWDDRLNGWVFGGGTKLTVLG
notes: as for B2
As to B25, the results for the “normalized affinity signal (average)” value in experiment [1] and in experiment [2] were 0.34 and 0.02, respectively.

B26: M20-D02 S-A Fab HC D101K (Fab, V domains shown)
VH: B17 VH with D110K
VL: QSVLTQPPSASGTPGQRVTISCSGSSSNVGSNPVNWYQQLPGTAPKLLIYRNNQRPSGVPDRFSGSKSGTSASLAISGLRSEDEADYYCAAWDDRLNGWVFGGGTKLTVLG
notes: as for B2
Take B26: the “normalized affinity signal (average)” value in experiment [1] came out at 1.65; in experiment [2], 0.21.

Values taken from patent US20120321619A1 (Bayer, published 2012).
